T1: isolated ectodomain of SLAMF1 containing a 6-histidine tag (seSLAMF1) (UniProt Q13291 21-237, limits assumed)
T1 construct: extracellular domain; not shown: 6-histidine tag
T1 sequence (looked up): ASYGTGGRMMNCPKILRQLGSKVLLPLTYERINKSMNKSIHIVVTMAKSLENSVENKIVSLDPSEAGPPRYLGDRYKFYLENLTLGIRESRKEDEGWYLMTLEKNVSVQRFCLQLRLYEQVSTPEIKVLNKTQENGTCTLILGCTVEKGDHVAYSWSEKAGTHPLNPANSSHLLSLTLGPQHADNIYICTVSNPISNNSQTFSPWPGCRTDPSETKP

B1: isolated SLAMF6^var3 ectodomain (seSLAMF6^var3), human, C-terminal 6-histidine tag (receptor)
chain: GNVVSVPHETKSPEIHVTNPKQGKRLNFTQSYSLQLSNLKMEDTGSYRAQISTKTSAKLSSYTLRILRQLRNIQVTNHSQLFQNMTCELHLTCSVEDADDNVSFRWEALGNTLSSQPNLTVSWDPRISSEQDYTCIAENAVSNLSFSVSAQKLCEDVKIQYTDTKMGSHHHHHH
notes: Expressed in HEK293 cells and purified on a Ni column (Novoprotein/BonOpus); The N-terminus is heterogeneous; also called seSLAMF6-V3; soluble ectodomain of SLAMF6^var3
B2: isolated ectodomain of SLAMF7 containing a 6-histidine tag (seSLAMF7) (receptor, UniProt Q9NQ25 23-226, looked up)
chain: SGPVKELVGSVGGAVTFPLKSKVKQVDSIVWTFNTTPLVTIQPEGGTIIVTQNRNRERVDFPDGGYSLKLSKLKKNDSGIYYVGIYSSSLQQPSTQEYVLHVYEHLSKPKVTMGLQSNKNGTCVTNLTCCMEHGEEDVIYTWKALGQAANESHNGSILPISWRWGESDMTFICVARNPVSRNFSSPILARKLCEGAADDPDSSM
notes: extracellular domain; not shown: 6-histidine tag
B3: isolated ectodomain of SLAMF6^var1 containing a 6-histidine tag (Prospec, seSLAMF6) (receptor)
chain: QSSLTPLMVNGILGESVTLPLEFPAGEKVNFITWLFNETSLAFIVPHETKSPEIHVTNPKQGKRLNFTQSYSLQLSNLKMEDTGSYRAQISTKTSAKLSSYTLRILRQLRNIQVTNHSQLFQNMTCELHLTCSVEDADDNVSFRWEALGNTLSSQPNLTVSWDPRISSEQDYTCIAENAVSNLSFSVSAQKLCEDVKIQYTDTKM
notes: Bought reagent; Only the ectodomain stood in the assay; also called isolated SLAMF6^var1 ectodomain; not shown: 6-histidine tag
B4: Fc-fused ectodomain of SLAMF6^var1 (seSLAMF6_Fc, Creative Biomart) (Fc fusion)
chain: B3 chain
notes: Bought reagent, coated on the plate at 1 ug/ml; Only the ectodomain stood in the assay; also called full length seSLAMF6-Fc; SLAMF6^var1 ectodomain (Fc-conjugated); not shown: Fc portion

What was measured:
Test in all cases: ELISA, seSLAMF6-Fc coated on the plate, anti-His-HRP detection
[1] = target: B4
Procedure: (§1) FIG. 11. seSLAMF6-V3 binding to full length seSLAMF6-Fc using ELISA. seSLAMF6-Fc was pre-coated to MaxiSorb plate. Soluble ectodomains from various SLAM family members (seSLAMF6, seSLAMF6-V3, seSLAMF1, seSLAMF7 and seSLAMF8, all containing 6-Histidine tags) were then added. An anti- Histidine antibody was used for detection.
(§2) MaxiSorb plates were pre-coated overnight with an Fc-fused ectodomain of SLAMF6^var1 (seSLAMF6_Fc, Creative Biomart, at 1 μg/ml and 4° C.). On the next day, the plate was washed and blocked using blocking buffer containing 1% BSA in PBSX1. Next, the plate was incubated for two hours with different concentrations of isolated ectodomains (containing 6-histidine tags) from SLAMF6^var1 (Prospec, seSLAMF6) or SLAMF6^var3 (Novoprotein/Bonopus, seSLAMF6-V3), or from SLAMF1, SLAMF7 or SLAMF8 (seSLAMF1, seSLAMF7 and seSLAMF8, respectively). The amount of receptor-bound ectodomain polypeptides was detected using horseradish peroxidase (HRP)-conjugated antibodies directed to the histidine tag (anti-HIS Abs) and quantified using an ELISA reader.

[2] = target: T1, isolated ectodomain of SLAMF1 …
Procedure: as §1, §2

[3] = target: T2, isolated ectodomain of SLAMF8 containing a 6-histidine tag (seSLAMF8) (UniProt Q9P0V8 23-233, limits assumed)
T2 construct: extracellular domain; not shown: 6-histidine tag
T2 sequence (Q9P0V8 23-233 limits assumed): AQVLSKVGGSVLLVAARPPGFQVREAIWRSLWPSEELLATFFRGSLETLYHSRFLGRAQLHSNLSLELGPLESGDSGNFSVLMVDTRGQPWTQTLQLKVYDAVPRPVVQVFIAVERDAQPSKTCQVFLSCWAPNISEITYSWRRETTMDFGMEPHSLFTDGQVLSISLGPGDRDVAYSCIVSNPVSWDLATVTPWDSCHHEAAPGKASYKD
Procedure: as §1, §2

Binder | binding result [1] | binding result [2] | binding result [3]
B1 | binds | – | –
B2 | no binding | – | –
B3 | binds | – | –
B4 | – | no binding | no binding

Reference: patent publication US20210054043A1 (HADASIT MEDICAL RESEARCH SERVICES AND DEVELOPMENT, published 2021)
